These are literature values, as cited in publication PMC3749945.

As usually defined, the Kd is a measure of binding affinity in units of concentration.

For the series, the target named is Cdc42 (Homo sapiens) (UniProt P60953).
Sequence of UniProt P60953 (P60953 1-188): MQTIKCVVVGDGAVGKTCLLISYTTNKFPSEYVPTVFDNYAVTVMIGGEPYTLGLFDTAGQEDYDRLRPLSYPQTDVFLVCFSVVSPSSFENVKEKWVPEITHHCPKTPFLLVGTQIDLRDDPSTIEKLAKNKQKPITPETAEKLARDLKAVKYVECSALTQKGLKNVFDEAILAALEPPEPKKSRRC

Consider WASP (from UniProt P42768), for which the Kd was 74 nM.
